In the nanobody polyreactivity screen of Harvey et al. (2022):

assay: yeast display, Sf9 membrane polyspecificity reagent, FACS + sequencing; frameworks hold sequencing errors
How it was run: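 Polyreactivity labels are assigned by the sorting gate from which each nanobody was recovered. The gates were low and high (top ~1%), set on anti-HA fluorescence for expression and streptavidin fluorescence for reagent binding. Before sorting, galactose-induced (36–48 hours) yeast display cells were stained for 1 hour at 4 °C with 10% biotinylated, detergent-solubilized Sf9 membrane reagent.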

Sequence | polyreactivity (PSR sort gate)
QVQLVESGGGLVQAGGSLRLSCAASGSISGYYAMGWYRQAPGKERELVASIRYTGARTYYADSVKGRFTISRDNAKNTVYLQMNSLKPEDTAVYYCAADFRSVFSKYSYYLYFDFDYWGQGTQVTVSS | low polyreactivity
QVQLVESGGGLVQAGGSLRLSCAASGSISKINAMGWYRQAPGKERELVAAINTGDSTYYADSVKGRFTISRDNAKNTVYLQMNSLKPEDTAVYYCATVVYTWFLAEEDDYCGQGTQVTVSS | low polyreactivity
QVQLVESGGGLVQAGGSLRLSCAASGSISPQNVMGWYRQAPGKERELVAAITWTGTSTYADSVKGRFTISRDNAKNTVYLQMNSLKPEDTAVYYCAARYYAPRWFRYDYWGQGTQVTVSS | low polyreactivity
QVQLVESGGGLVQAGGSLRLSCAASGSISPQNVMGWYTQAPGKERELVAAITGGGSTNYADSVKGRFTISRDNAKNTVFLLMNSLKPEDTAVYYCNADYFQDRLDYWGQGTQVTVSS | low polyreactivity
QVQLVESGGGLVQAGGSLRLSCAASGSISQTYAMGWYRQAPGKERELVAAISSSGASTYYADSVKGRFTISRDNAKNTVYLQMNSLKPEDTAVYYCAVVPSSTYHSYDYWGQGTQVTVSS | high polyreactivity
QVQLVESGGGLVQAGGSLRLSCAASGSISRFYAMGWYRQAPGKERELVAAISWSGGRPYYADSVKGRFTISRDKAKNTVYLQMNSLKPEDTAVYYCNAYRRYNDEDYWGQGTQVTVSS | high polyreactivity
QVQLVESGGGLVQAGGSLRLSCAASGSISRGNVMGWYRQAPGKERELVAGITRGGRTNYADSVKGRFTISRDNAKNTVYLQMNSLKPEDTAVYYCATYTYYVPWRQRGGYPDFDYWGQGTQVTVSS | high polyreactivity
QVQLVESGGGLVQAGGSLRLSCAASGSISRRYVMGWYRQAPGKERELVAAISTSGGSTYYADSVKGRFTISRDNAKNTVYLQMNSLKPEDTAVYYCAADLPVQGGFDYWGQGTQVTVSS | low polyreactivity
QVQLVESGGGLVQAGGSLRLSCAASGSISSKNAMGWYRQAPGKEREFGAVISGTGGSTYYADSVKGRFTISRDNAKNTVYLQMNSLKPEDTAVYYCAAAASSIVSYGYTWTYGYWGQGTQVTVSS | low polyreactivity
QVQLVESGGGLVQAGGSLRLSCAASGSISSKNAMGWYRQAPGKEREFVAVISGTGGSTYYADSVKGRFTISRDNAKNTVYLQMNSLKPEDTAVYYCAAAASSIVSYGYTWTYGYWGQGTQVTVSS | low polyreactivity
QVQLVESGGGLVQAGGSLRLSCAASGSISSQYGMGWYRQAPGKERELVATIRDGGRTNYADSVKGRFTISRDNAKNTVYLQMNCLKPEDTAVYYCAALYWYYYTWPLYDYWGQGSQVTVSS | low polyreactivity
QVQLVESGGGLVQAGGSLRLSCAASGSISVDNTMGWYRQAPGKERELVAAISRSGGTTYYADSVKGRFTISRDNAKNTVYLQMNSLKPEDTAVYYCAKDTLRYRWRSYDYYPEMNYWGQGTQVTVSS | low polyreactivity
QVQLVESGGGLVQAGGSLRLSCAASGSISVPNAMGWYRQAPGKERELVAGITSGDSTHYADSVKGRFSISRDNAKNTVYIQMISLKPEDTAVYYCAAKVPEPPSLDESDYWGQGTQVTVSA | low polyreactivity
QVQLVESGGGLVQAGGSLRLSCAASGSISVRNVMGWYRQAPGKERELVATIRRTGGSTSYADSVKGRFTISRDNAKNTVYLQMNSLKPEDTAVYYCAAVGYTTYRRYDYWGQGTQVTVSS | low polyreactivity
QVQLVESGGGLVQAGGSLRLSCAASGSISVVNMGWYRQPPRKERQFVASITSSGSTTYADSVKGRFTISRDNAKNTVYLQMNSLKPEDTAVYYCAADVGTDYTYQHPAGAAYDYWGEGTQVTVSS | low polyreactivity
QVQLVESGGGLVQAGGSLRLSCAASGSISVVYDMGWYRQAPGTERELVAAIDWSGGSTYYADSVKGRFTISRDNAKNTVYLQMNSLKPEDTAVYYCAADDKVRYYWGQGTQVTVSS | low polyreactivity
QVQLVESGGGLVQAGGSLRLSCAASGSISVYNAMGWYRPAPGKERELVAAISWSGGRTSYADSVKGRFTISRDHAKNTVYLQMNSLKPEDTAVYYCAADELSVLWDEDYWGQVTQVTVSS | low polyreactivity
QVQLVESGGGLVQAGGSLRLSCAASGSISWAYVMGWYRQAPGKERELVAAISSGTSTYYADSVKGRFTLSRDNAKKTVYLQMNSLKPEDTAVYYCAAYYYSYPTNGGYGYWGQGTQVTVSS | low polyreactivity
QVQLVESGGGLVQAGGSLRLSCAASGSISWYYAMGWYRQAPGKEWEGVAAISDSGGDTYYADSVKGRFTISRDNAKNTVYLQMNSLKPEDTAVYYCAAQYRGSYRTTYDYWGQGTQVTVSS | low polyreactivity
QVQLVESGGGLVQAGGSLRLSCAASGSISYEFAMGWYRQAPGKERELVASIDSDGAGTYYADSVKGRFTISRDNAKNTVYLQMNSLKPEDTAVYYGNAEWYYPYYYSRMDYWGQGTQVTVSS | low polyreactivity
QVQLVESGGGLVQAGGSLRLSCAASGSISYEYAMGWYRPAPGKERELVASIDSDGAGTYYADSVKGRFTISRDNAKNTDYLQMNSLKPEDTAVYYCNAEWYYPYYYSRMDYWGQGTQVTVSS | low polyreactivity

Sequence | polyreactivity (PSR sort gate)
QVQLVESGGGLVQAGGSLRLSCAASGSISYFNDMGWYRQAPGKERELVAAIRDSGGITYADSVKGRFTISRDNAKYTVYLQMNSLKPEDTAVYYCATYGNEIYDYWGQGTQVTVSS | low polyreactivity
QVQLVESGGGLVQAGGSLRLSCAASGSISYIYTMGWYRQAPGKERELVAAISGSGSTYYADSVKGRFTISRDNAKNTVYLQMNSLKPEDTAVHYCNAGSGGLNFQEVPQGYDYWGQGTQVTVSS | low polyreactivity
QVQLVESGGGLVQAGGSLRLSCAASGSISYPNAMGWYRQAPGKERELVAAINSGDRTNYADSVKGRFTISRDNAKNTVYLQMNSLKPEDTAVYYCARRRYLLWGGYGYWGQGTQVTVSS | low polyreactivity
QVQLVESGGGLVQAGGSLRLSCAASGSISYSNAMGWYRQAPGKERELVAAISWSTGRTYYADSVKGRFTISRDNAKNTVYLQMNSLKPEDTAVYYCATRLYPGGPYDYWGQGTQVTVSS | high polyreactivity
QVQLVESGGGLVQAGGSLRLSCAASGSISYTYAMGWYRQAPGKERELVAAISYSEGITYYADSVKGRFTISRDNAKNTVYLQMNSLKPEDTAVYYCAVEGVYPYYDQSEYDYWGQGTQVTVSS | high polyreactivity
QVQLVESGGGLVQAGGSLRLSCAASGSISYYYGKGWYRQAPGKERELVAAISTRGGSTYYADSVKGRFTISRDNAKNTVYLQMNSLKPEDTAVYYCNKVYYKRFYYWGQGTQVTVSS | high polyreactivity
QVQLVESGGGLVQAGGSLRLSCAASGSIVEYYAMGWYRQAPGKERELVAAISTGGSTYYADSVKGRFTISRDNAKNTVYLQMNSLKPEDTAVYYCAAEDYHPGADTVGTGYDYWGQGTQVTVSS | low polyreactivity
QVQLVESGGGLVQAGGSLRLSCAASGSIVNYNDMGCYRQAPGKERELVAAIDSSGTSTYYADSVKGRFTISRDNAKNTVYLQMNSLKPEDTAVYYCNADSSLGFGYWGQGTQVTVSS | low polyreactivity
QVQLVESGGGLVQAGGSLRLSCAASGSIVTSYAIGWYRQAPGQERELVATITRRGGSTYYADSVKGRFTISRDNSKNTVYLQMNSLKPEDTAVSYCTARSSTIVYAGDYWGLGTQVTVSS | low polyreactivity
QVQLVESGGGLVQAGGSLRLSCAASGSIVYPYAMGWNRQAPGKERELVAAITGHGGSTYYADSVKGRFTISRDNAKNTVYLQMNSMKPEDTAVYYCAAYRVVYSDAYYYWGQGTQVTVSS | low polyreactivity
QVQLVESGGGLVQAGGSLRLSCAASGSIVYSYAMGWYRQAPGKERELVATISWSGGRTNYADSVKGRITISRDTAKNSVYLLMNSLKPVDTAVYYCAADIPPWGGDYWGQGTQVTVSS | low polyreactivity
QVQLVESGGGLVQAGGSLRLSCAASGSIYDYNAMGWYRQAPGKERELVAAISASGGSTYYADSVKGRFTISRDNAKNTVYLQMNSLKPEDTAVYYCAAGYWSYWSLRMDYWGQGTQVTVSS | high polyreactivity
QVQLVESGGGLVQAGGSLRLSCAASGSIYEINAMGWYRQAPGKERELVAAITGSGGSTHYADSVKGRFTISRDNAKNTVYLQMNSLKPEDTAVYYCAAVPRYQYGYWGQGTQVTVSS | low polyreactivity
QVQLVESGGGLVQAGGSLRLSCAASGSIYGDYAMGWYRQAPGKERELVAAISWRGVRTYYADSVKGRFTISRDNAKNTVYLQMNSLNPEDTAVYYCDAEYYFVNRGAWYDYWGQGTQVTVSS | high polyreactivity
QVQLVESGGGLVQAGGSLRLSCAASGSIYGYTMGWYRQAPGKERELVAAINRRADRTYYADSVKGRFTISRDNAKNTVYLQMNSLKPEDTAVYYCNKGGWYTLGYCGQGTQVTVSS | high polyreactivity
QVQLVESGGGLVQAGGSLRLSCAASGSIYLWKAMGWYRQAPGKERELVAAIDSGGSTYAESVKGRFTISRDNAKNTVYLQMNSLKPEDTAVYYCAAEIPDEWPYDYWGQGTQVTVSS | low polyreactivity
QVQLVESGGGLVQAGGSLRLSCAASGSIYPDYDMGWYRQAPGKERELVAAISSSGDSTYYADSVKGRFTISRDNAKNTVYLQMNSLKPEDTAVYYCAVDGTRSTSNGSEFTGYNYWGQGTHVTVSS | low polyreactivity
QVQLVESGGGLVQAGGSLRLSCAASGSIYVWYDMGWYRQAPGKERELVDTISLSGVSTYYADSVKGRFTISRDNAKNTVYLQMNSLKPEDTAVYYCAADFVEQGEDDYWGQGTQVTVSS | low polyreactivity
QVQLVESGGGLVQAGGSLRLSCAASGSIYYNAMGWYRQAPGKERELVAAISTSGGTTYYADSVKGRFTISRDNAKNTVYLQMNSLKPEDTAVYYCNALSVPDYDYWGQGTQVTVSS | high polyreactivity
QVQLVESGGGLVQAGGSLRLSCAASGSIYYRYAMGWYRQAPGKERELVAAISKRGGSTYYADSVKGRFTISRDNAKITVYLQMNRLKPEDTAVYYCAAEVSSFLYTPSYSTDDYWGQGTQVTVSS | high polyreactivity
